# In patent publication US20080311034A1 (published 2008):
# T1: recombinant polyhistidine tagged mouse FcγRI (R&D Systems) (mouse, UniProt P26151 25-297)
# T1 construct: Bought; also called murine FcγRI
# T1 sequence (looked up): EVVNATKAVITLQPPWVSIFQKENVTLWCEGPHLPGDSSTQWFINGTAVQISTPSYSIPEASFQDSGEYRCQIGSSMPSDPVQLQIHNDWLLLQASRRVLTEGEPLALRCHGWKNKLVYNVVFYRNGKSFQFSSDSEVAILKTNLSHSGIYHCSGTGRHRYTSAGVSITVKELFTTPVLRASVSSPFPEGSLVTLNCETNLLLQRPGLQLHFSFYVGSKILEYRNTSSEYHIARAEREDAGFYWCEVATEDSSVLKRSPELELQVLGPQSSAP
# T2: recombinant polyhistidine tagged mouse FcγRII (R&D Systems) (mouse, UniProt P08101 40-217, limits assumed)
# T2 construct: Bought; also called FcRII
# T2 sequence (looked up): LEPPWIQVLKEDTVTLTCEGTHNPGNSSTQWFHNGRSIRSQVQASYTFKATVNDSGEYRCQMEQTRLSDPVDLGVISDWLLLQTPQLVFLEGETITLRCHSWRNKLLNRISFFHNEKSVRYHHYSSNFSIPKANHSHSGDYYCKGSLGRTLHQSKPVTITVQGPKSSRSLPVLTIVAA
# T3: recombinant polyhistidine tagged mouse FcγRIII (R&D Systems) (mouse, UniProt P08508 31-215)
# T3 construct: Bought
# T3 sequence (looked up): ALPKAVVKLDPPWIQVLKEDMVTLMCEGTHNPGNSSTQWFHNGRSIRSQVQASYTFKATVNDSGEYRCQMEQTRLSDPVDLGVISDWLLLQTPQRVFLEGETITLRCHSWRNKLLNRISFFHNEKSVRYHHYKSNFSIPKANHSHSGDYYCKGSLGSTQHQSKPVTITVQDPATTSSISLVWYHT
# T4: recombinant polyhistidine tagged mouse FcγRIV (R&D Systems) (mouse, UniProt A0A0B4J1G0 21-203)
# T4 construct: Bought
# T4 sequence: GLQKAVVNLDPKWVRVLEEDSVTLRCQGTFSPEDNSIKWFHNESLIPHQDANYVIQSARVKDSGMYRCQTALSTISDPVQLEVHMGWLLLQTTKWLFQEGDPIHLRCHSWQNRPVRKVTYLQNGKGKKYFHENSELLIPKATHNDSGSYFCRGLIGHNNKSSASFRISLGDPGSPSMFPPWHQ
# T5: recombinant human FcγRIIb (R&D Systems #1875-CD-050) (human, UniProt P31994 46-217, limits assumed)
# T5 construct: Bought; also called CD32b; recombinant, soluble, human FcγRIIb
# T5 sequence (looked up): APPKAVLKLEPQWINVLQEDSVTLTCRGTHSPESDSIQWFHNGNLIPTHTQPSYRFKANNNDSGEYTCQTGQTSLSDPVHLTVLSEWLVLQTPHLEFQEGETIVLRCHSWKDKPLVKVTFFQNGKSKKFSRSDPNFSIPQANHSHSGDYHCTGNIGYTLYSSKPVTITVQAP
# Columns and labels:
# [1] = biological target: T6, recombinant human His-tagged FcγRIIIa (extracellular domain made at Centocor) (human, UniProt P08637 17-208); assay: ELISA, His-tagged FcγRIIIa captured on HisGrab plate
# T6 construct: extracellular domain; also called CD16a; recombinant, soluble, human FcγRIIIa
# T6 sequence (P08637 17-208): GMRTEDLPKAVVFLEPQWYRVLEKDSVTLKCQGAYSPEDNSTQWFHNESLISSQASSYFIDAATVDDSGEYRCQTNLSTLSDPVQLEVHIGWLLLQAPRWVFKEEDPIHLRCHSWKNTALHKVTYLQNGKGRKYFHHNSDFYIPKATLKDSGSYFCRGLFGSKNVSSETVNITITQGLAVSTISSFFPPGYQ
# Protocol: (§1) FcγRIIIa (CD16a) ELISA—A human FcγRIIIa binding assay was done in ELISA format similar to the assay for FcγRI above. 50 μl of a 2 μg/ml solution of recombinant human His-tagged FcγRIIIa (extracellular domain made at Centocor) in ELISA buffer (PBS, 4 mg/ml BSA, 0.01% Tween-20) was added to each well of HisGrab 96 well plates (Pierce #15142) (Powers G., Notebook 10378, 19-23). The plate was incubated for 3 hours at room temp. The plates were blocked with 200 μl of Starting Block (Pierce #15142) for 30 min, and then washed 3× with 300 μl of wash buffer (PBS, 0.01% Tween-20) on a plate washer. Serial dilutions of the CNTO 860 test samples were made in Starting Block buffer and 50 μl per well of each titration were added in duplicate to the FcγRIIIa-coated plates. The plates were incubated for 1 hour. The plates were washed 3× with 300 μl of wash buffer on a plate washer. 50 μl of a 1:10,000 dilution of HRP-labeled goat F(ab′)2 anti-human IgG F(ab′)2 (Jackson Immunoresearch # 109-036-097) in Starting Block buffer was added to each well. The plates were incubated for 30 minutes. The plates were washed 3× with 300 μl of wash buffer on the plate washer. 50 μl per well TMB substrate (RDI #RDI-TMBSU-1L) was added to each well and developed for 3-5 minutes. The reaction was stopped by adding 100 μl 10.2 N sulfuric acid. The plates were read at OD450 on an Envision plate reader. Antibody concentration vs OD450 values were graphed for each CNTO 860 variant and the antibody concentration needed to achieve an OD450 reading of 0.14 established by interpolation within each data curve.
# [2] = biological target: FcγRIIIa on NK cells of human PBMC (human, UniProt P08637 17-254); assay: cell-based or functional assay
# FcγRIIIa on NK cells of human PBMC, sequence (P08637 17-254): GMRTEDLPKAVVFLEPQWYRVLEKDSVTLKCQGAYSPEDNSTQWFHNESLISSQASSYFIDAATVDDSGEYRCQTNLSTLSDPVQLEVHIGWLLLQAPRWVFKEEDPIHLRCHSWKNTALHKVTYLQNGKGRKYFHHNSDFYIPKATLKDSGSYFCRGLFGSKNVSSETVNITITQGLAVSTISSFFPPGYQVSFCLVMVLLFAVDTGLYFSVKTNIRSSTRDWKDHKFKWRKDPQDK
# [3] = biological target: T1, recombinant polyhistidine tagged mouse …; assay: ELISA, His-tagged mouse receptor captured on copper-coated plate
# Protocol: (§2) Commercially-available recombinant polyhistidine tagged mouse FcγRI, FcγRII, FcγRIII, and FcγRIV (R&D Systems) were diluted to 1 μg/ml in PBS and 100 μl/well was captured onto copper-coated plates (Pierce) overnight at 4° C. Plates were washed three times with wash buffer (0.15M NaCl, 0.02% Tween 20). Non-specific binding was blocked using 200 μl/well SuperBlock (Pierce) for 15 minutes at room temperature. Plates were washed three times as above. […] Plates were washed three times as above to remove unbound mAb. CNTO 860 variants that bound to plated receptors were detected using 100 μl/well HRP-labeled goat F(ab′)₂ anti-human IgG F(ab′)₂ (Jackson ImmunoResearch) diluted 1:5,000 in PBS incubated at room temperature for 1 hour. Plates were washed five times using wash buffer as above, and developed using 100 μl/well TMB Stable Stop substrate (Fitzgerald Industries) stopped with 0.5M HCl. Absorbance was detected at 450 nm.
# (§3) All binding assays were in an ELISA format, with recombinant soluble receptor captured on coated EIA plates.
# [4] = biological target: T2, recombinant polyhistidine tagged mouse …; assay: as above
# Protocol: as §2, §3
# [5] = biological target: T3, recombinant polyhistidine tagged mouse …; assay: as above
# Protocol: as §2, §3
# [6] = biological target: T4, recombinant polyhistidine tagged mouse …; assay: as above
# Protocol: as §2, §3
# [7] = biological target: T5, recombinant human FcγRIIb (R&D Systems …); assay: AlphaScreen
# Protocol: FcγRIIa (CD32a) AlphaScreen—Nickel acceptor beads (Perkin Elmer #6760619C) were diluted 1:50 in assay buffer (PBS, pH 7.4, 4 mg/ml BSA, 0.01% Tween-20), and 27.5 μl were added to each well of a Nunc V-bottom polypropylene plate (VWR # 62409-108) (Powers G., Notebook 9006, pp. 169-175, 182-185). A 2.0 μg/ml solution of recombinant human His-tagged FcγRIIa (R&D Systems #1330-CD-050) was prepared in assay buffer and 27.5 μl added to each well of a separate Nunc V bottom polypropylene plate. Titrations of test Abs were prepared in the Nunc V bottom polypropylene plate starting at 30 μg/ml. A 2 μg/ml solution of biotinylated goat F(ab′)₂ anti-human IgG F(ab′)₂ (Jackson Immunoresearch #109-066-097) was prepared in assay buffer and 27.5 μl added to each well of another Nunc V bottom polypropylene plate. A 1:50 dilution of streptavidin donor beads (PerkinElmer # 6760002) was prepared in assay buffer and 27.5 μl added to each well of another Nunc V bottom polypropylene plate. A volume of 5 μl of each reagent was added to the corresponding quadrants of a low-volume, non-binding white 384-well plate (Corning # 3673) in the following order: acceptor beads, FcγRIIa, test Ab, biotinylated anti-human IgG F(ab′)₂, and streptavidin donor beads. The plates were incubated for 30 minutes with shaking and the O.D.s determined using an Envision plate reader.
# FcγRIIb (CD32b) AlphaScreen—The assay was performed as described above for FcγRIIa except that FcγRIIa was replaced with FcγRIIb (R&D Systems #1875-CD-050).
# [8] = biological target: T7, recombinant human His-tagged FcγRI (extracellular domain, R&D Systems #1257-FC-050) (human, UniProt P12314 16-292); assay: ELISA
# T7 construct: extracellular domain; Bought; also called CD64; recombinant, soluble, human FcγRI
# T7 sequence (P12314 16-292): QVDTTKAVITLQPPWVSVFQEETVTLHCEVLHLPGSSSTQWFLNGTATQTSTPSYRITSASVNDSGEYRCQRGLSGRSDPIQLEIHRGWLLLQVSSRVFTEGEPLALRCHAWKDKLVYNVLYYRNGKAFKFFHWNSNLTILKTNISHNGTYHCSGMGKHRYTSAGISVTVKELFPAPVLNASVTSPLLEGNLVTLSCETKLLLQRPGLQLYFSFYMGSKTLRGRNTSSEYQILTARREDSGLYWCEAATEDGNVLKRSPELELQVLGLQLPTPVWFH
# Protocol: FcγRI (CD64) ELISA —50 μl of a 1 μg/ml solution of recombinant human His-tagged FcγRI (extracellular domain, R&D Systems #1257-FC-050) in ELISA buffer (PBS, pH 7.4, 4 mg/ml BSA, 0.01% Tween-20) was added to each well of HisGrab 96 well plates (Pierce #15142) (Powers G., Notebook 9006, pp. 166-168, 180-181). The plate was incubated with shaking for 3 hours. The plates were washed 3× with 300 μl of wash buffer (PBS, 0.01% Tween-20) on a plate washer. Serial dilutions of the CNTO860 antibody Fc-variant samples were made in ELISA buffer and 50 μl per well of each titration were added in duplicate to the FcγRI-coated plates. The plates were incubated with shaking for 1 hour. The plates were washed 3× with 300 μl of wash buffer on a plate washer. 50 μl of a 1:10,000 dilution of HRP-labeled goat F(ab′)₂ anti-human IgG F(ab′)₂ (Jackson Immunoresearch # 109-036-097) in ELISA buffer was added to each well. The plates were incubated with shaking for 30 minutes. The plates were washed 3× with 300 μl of wash buffer on the plate washer. 50 μl per well TMB substrate (RDI #RDI-TMBSU-1L) was added to each well and developed for 5 minutes. The reaction was stopped by adding 100 μl 0.2 N sulfuric acid. The plates were read at OD450 on an Envision plate reader.
# as §1, with “minutes.” for “minutes. The plates were washed 3× with 300 μl of wash buffer on the plate washer. 50 μl per well TMB substrate (RDI #RDI-TMBSU-1L) was added to each well and developed for 3-5 minutes. The reaction was stopped by adding 100 μl 10.2 N sulfuric acid. The plates were read at OD450 on an Envision plate reader. Antibody concentration vs OD450 values were graphed for each CNTO 860 variant and the antibody concentration needed to achieve an OD450 reading of 0.14 established by interpolation within each data curve.”
binder,measurement,setting,value
"CHO-CNTO 860 I332E/V264I (antibody, human IgG1, kappa, Heavy chain N297 carries the CHO-type N-linked glycan (about 95% fucosylated); not carried by the letters., IgG1/kappa Fc variant; transiently expressed in CHO cells (p4187/p4146); EU numbering; also called V264I/I332E (CHO cell-derived); copies: 2 + 2) heavy: not shown light: DIQMTQSPSSLSASVGDRVTITCKASQDIRKYLNWYQQKPGKAPKLLIYYATSLADGVPSRFSGSGSGTDYTFTISSLQPEDIATYYCLQHGESPYTFGQGTKLEITRTVAAPSVFIFPPSDEQLKSGTASVVCLLNNFYPREAKVQWKVDNALQSGNSQESVTEQDSKDSTYSLSSTLTLSKADYEKHKVYACEVTHQGLSSPVTKSFNRGEC",concentration (ng/ml) required for an O.D. value of 0.14,[1],900 ng/mL
same,"EC25 (ng/ml), ADCC of HCT116 cells by human PBMC",[2],1 ng/mL
same,ECOD1 (concentration required for an O.D. value of 1.0),[3],25800 ng/mL
same,ECOD1 (concentration required for an O.D. value of 1.0),[4],1700 ng/mL
same,ECOD1 (concentration required for an O.D. value of 1.0),[5],2000 ng/mL
same,ECOD1 (concentration required for an O.D. value of 1.0),[6],8 ng/mL
"CNTO 860 A330I (antibody, N-linked glycan at Asn297 of the heavy chain (fucose content depends on host cell, CHO or YB2/0); not carried by the letters, also called A330I variant; A330I single mutant; copies: 2 + 2) heavy: not shown light: DIQMTQSPSSLSASVGDRVTITCKASQDIRKYLNWYQQKPGKAPKLLIYYATSLADGVPSRFSGSGSGTDYTFTISSLQPEDIATYYCLQHGESPYTFGQGTKLEITRTVAAPSVFIFPPSDEQLKSGTASVVCLLNNFYPREAKVQWKVDNALQSGNSQESVTEQDSKDSTYSLSSTLTLSKADYEKHKVYACEVTHQGLSSPVTKSFNRGEC",fold change in binding against WT (reduced),[7],500 fold
"CNTO 860 S239D/I332E (antibody, human IgG1, kappa, N-linked glycan at Asn297 of the heavy chain (fucose content depends on host cell, CHO or YB2/0); not carried by the letters, also called S239D/I332E double mutant; copies: 2 + 2) heavy: not shown light: DIQMTQSPSSLSASVGDRVTITCKASQDIRKYLNWYQQKPGKAPKLLIYYATSLADGVPSRFSGSGSGTDYTFTISSLQPEDIATYYCLQHGESPYTFGQGTKLEITRTVAAPSVFIFPPSDEQLKSGTASVVCLLNNFYPREAKVQWKVDNALQSGNSQESVTEQDSKDSTYSLSSTLTLSKADYEKHKVYACEVTHQGLSSPVTKSFNRGEC",fold change in binding against WT (enhanced),[7],~6 fold
"CNTO 860 I332E (antibody, N-linked glycan at heavy chain Asn297 (host cell not specified in these sentences); not carried by the letters, also called I332E variant; I332E single mutant; copies: 2 + 2) heavy: not shown light: DIQMTQSPSSLSASVGDRVTITCKASQDIRKYLNWYQQKPGKAPKLLIYYATSLADGVPSRFSGSGSGTDYTFTISSLQPEDIATYYCLQHGESPYTFGQGTKLEITRTVAAPSVFIFPPSDEQLKSGTASVVCLLNNFYPREAKVQWKVDNALQSGNSQESVTEQDSKDSTYSLSSTLTLSKADYEKHKVYACEVTHQGLSSPVTKSFNRGEC",fold change in binding against WT (enhanced),[8],2 fold
